Results from the Human Domainome abundance scans (Beltran et al. 2025).

B1: Nuclear receptor subfamily 1 group D member 2, residues 103 to 171; numbered along this chain, Q14995 (parent)
chain: CKVCGDVASGFHYGVHACEGCKGFFRRSIQQNIQYKKCLKNENCSIMRMNRNRCQQCRFKKCLSVGMSR

Variants of: B1
Assay: abundance fitness (aPCA) (normalised: wild type 0, dead -1); higher = more abundant; growth selection in yeast, the domain comes from the species named
Conditions: Homo sapiens

Abundance fitness: each site, then its substitutions
C4: E -0.687; A -0.949; T -0.599; L -0.902; V -0.941; G -0.795; W -0.83
V7: G -0.469; Q 0.118; T -0.126; E 0.057; C -0.526; W -0.195; R 0.032; F -0.061; N -0.019; P -0.295; A -0.153; M -0.032; K 0.167; L -0.119; S -0.083; D -0.001
I29: Q -0.339; V -0.17; G -0.821; M -0.14; K -0.98; R -0.601; S -0.7; T -0.282; L -0.19; A -0.723; C -0.388; Y -0.813; W -0.412; F -0.081; E -0.675; N -0.058
F25: Y -0.481; R -0.646; Q -0.797; L -0.752; W -0.332; G -0.86; S -0.609; A -0.72; D -0.696; V -0.785; N -0.647; I -0.152; E -0.634; P -0.836
K2: N -0.011; S -0.336; A 0.016; R -0.029; C -0.578; W -0.673; D -0.482; I -0.367; G -0.623; Q -0.049; L -0.491; M -0.401; E -0.174; Y -0.7; V -0.474; T -0.186; F -0.53
S9: Y -0.49
D6: V -0.56; Y -0.445; Q -0.513; T -0.47; A 0.04; R -0.857; E -0.06; L -0.572; M -0.345; K -0.862; G -0.535; F -0.694; S -0.706
V15: S -0.954; Q -0.744; Y -0.492; G -0.546; P -0.67; E -0.679; D -0.746; M -0.753; T -0.961; C -0.623; I -0.327; N -0.954; R -0.819; L -0.3
G14: P -0.835; T -0.828; D -0.579; W -0.878; F -0.558; L -0.898; S -0.291; M -0.759; A -0.871
E19: Q -0.699; P -0.465; S -0.583; M -0.884; L -0.858; Y -0.394; T -0.478; G -0.63; D 0.114; W -0.325; R -0.058; V -0.669
R27: V 0.094; L -0.154; G -0.433; T -0.034; F -0.581; K -0.275; N 0.237; S -0.51; E 0.216; M 0.073; H 0.305; W 0.091; D 0.126
G20: S 0.212; D 0.531
Q30: S -0.364; N -0.43; P -0.523; I -0.553; V -0.092; M -0.521; A 0.04; K -0.195; F -0.634; D 0.022; R -0.557; L -0.023; T 0.126
G10: D -0.433; V -0.119
H12: G -0.421; D -0.44; Y -0.253; F -0.514; N -0.161; R -0.732; A -0.28; P -0.835; Q -0.568; I -0.747; W 0.033; T -0.546; M -0.936; S -0.301; E -0.587
C1: F -0.451; G -0.939; E -0.613
